Results reported in patent US20240261374A1, “PHARMACEUTICAL COMPOSITION AND KIT COMPRISING AN IMMUNOMODULATORY SUBSTANCE FOR TREATING DISEASES” (ellennbe GmbH, priority 2021, published 2024).

B1: BDNF: recombinant human BDNF produced in Escherichia coli, R&D Systems catalogue number 248-BDB/CF; SEQ ID NO: 4 (protein, listed as Homo sapiens)
chain: HSDPARRGELSVCDSISEWVTAADKKTAVDMSGGTVTVLEKVPVSKGQLKQYFYETKCNPMGYTKEGCRGIDKRHWNSQCRTTQSYVRALTMDSKKRIGWRFIRIDTSCVCTLTIKRGR
modifications: human BDNF, human brain-derived neurotrophic factor
B2: Cimzia®: biologic, certolizumab pegol (antibody, chains of the INN, looked up, V domains shown)
VH: EVQLVESGGGLVQPGGSLRLSCAASGYVFTDYGMNWVRQAPGKGLEWMGWINTYIGEPIYADSVKGRFTFSLDTSKSTAYLQMNSLRAEDTAVYYCARGYRSYAMDYWGQGTLVTVSS
VL: DIQMTQSPSSLSASVGDRVTITCKASQNVGTNVAWYQQKPGKAPKALIYSASFLYSGVPYRFSGSGSGTDFTLTISSLQPEDFATYYCQQYNIYPLTFGQGTKVEIK
modifications: Fab' PEG (pegol)
B3: IL-4: recombinant human IL-4 produced in Escherichia coli, R&D Systems catalogue number 204-IL/CF; SEQ ID NO: 3 (protein, listed as Homo sapiens)
chain: METGLYLETHRSERGLNLELEPRPRLEPHEPHELELEALACYSALAGLYASNPHEVALHISGLYHISLYSCYSASPILETHRLEGLNGLILEILELYSTHRLEASNSERLETHRGLGLNLYSTHRLECYSTHRGLLETHRVALTHRASPILEPHEALAALASERLYSASNTHRTHRGLLYSGLTHRPHECYSARGALAALATHRVALLEARGGLNPHETYRSERHISHISGLLYSASPTHRARGCYSLEGLYALATHRALAGLNGLNPHEHISARGHISLYSGLNLEILEARGPHELELYSARGLEASPARGASNLETRPGLYLEALAGLYLEASNSERCYSPRVALLYSGLALAASNGLNSERTHRLEGLASNPHELEGLARGLELYSTHRILEMETARGGLLYSTYRSERLYSCYSSERSER
modifications: human IL-4, Interleukin 4

How the values were obtained:
[1] = system: patient suffering from multiple sclerosis; assay: treatment of a patient: SHILD-score, relapses, fatigue; format: in vivo, human; details: for subject's condition in multiple sclerosis: as indicated by the SHILD-score; for SHILD-score: multiple sclerosis
[2] = system: ankylosing spondylitis (Bechterew's disease); format: in vivo, human; details: Patient 11; ended more than a year before; lost their effect within half a year
[3] = as can be seen from the examples

| Molecule | fatigue in case of multiple sclerosis [1, 3] | subject's condition in multiple sclerosis [1] | SHILD-score [1] | Effect of earlier treatment with biologics (patient history) [2] | relapses in case of multiple sclerosis [1, 3] |
| --- | --- | --- | --- | --- | --- |
| B1 | very effectively relieving | stabilized or even improved | decreasing | – | – |
| B2 | – | – | – | had little effect from the outset | – |
| B3 | reduction | stabilization or even improvement | decreasing | – | avoiding |
